Test results: patent US20150225464A1 (Affibody, published 2015)

Key:
rat serum albumin [1] = molecular target: T1, rat serum albumin (rat, UniProt P02770 25-608); assay: SPR Biacore2000 sensorgrams
T1 construct: Bought; also called RSA
Experimental: (§1) The binding of the ABD variants obtained in Example 1 to human serum albumin (HSA), rat serum albumin (RSA), cynomolgus serum albumin (CSA) and mouse serum albumin (MSA) was analyzed by surface plasmon resonance using a Biacore2000 instrument.

mouse serum albumin [2] = molecular target: T2, mouse serum albumin (mouse, UniProt P07724 25-608); assay: SPR Biacore2000 sensorgrams
T2 construct: Bought; also called MSA
Experimental: as §1

human serum albumin [3] = molecular target: T3, human serum albumin (human, UniProt P02768 25-609); assay: SPR Biacore2000, HSA immobilized on CM-5, polypeptide as analyte, 1:1 Langmuir fit, relative values
T3 construct: Bought recombinant product; also called HSA; Albucult
Experimental: (§2) Biosensor analysis on a Biacore2000 instrument (GE Healthcare) was performed with HSA (Albucult®, Novozymes), CSA (purified in-house from cynomolgus serum), RSA (Sigma-Aldrich, Cat. No. A6272) and MSA (Sigma-Aldrich, Cat. No. A3559) immobilized by amine coupling onto the carboxylated dextran layer of the surfaces of CM-5 chips (research grade; GE Healthcare) according to the manufacturer's recommendations.
(§3) ABD variants were used as analytes and were injected in duplicates over the chip at three analyte concentrations (2.5, 10 and 40 nM). The association phase was 5 min followed by a long dissociation phase (60 min) to account at least partially for the slow off-rate of the ABD variants. […] Therefore, all KD's are given as relative KD values only.
(§4) After subtraction of reference surface and buffer injection, curves were fitted to a 1:1 (Langmuir) binding model using BlAevaluation software with correction for mass transfer and with RUmax set as a local parameter.

human serum albumin [4] = molecular target: T3, human serum albumin; assay: SPR Biacore2000, albumin immobilized on CM-5, polypeptide as analyte, relative KD
Experimental: as §2, §3, §4

rat serum albumin [5] = molecular target: T1, rat serum albumin; assay: as above
Experimental: as §2, §3, §4

cynomolgus serum albumin = molecular target: T4, cynomolgus serum albumin (cynomolgus); assay: as above
T4 construct: Purified from serum; also called CSA
Experimental: as §2, §3, §4

mouse serum albumin [6] = molecular target: T2, mouse serum albumin; assay: as above
Experimental: as §2, §3, §4

T1 sequence (P02770 25-608 limits assumed): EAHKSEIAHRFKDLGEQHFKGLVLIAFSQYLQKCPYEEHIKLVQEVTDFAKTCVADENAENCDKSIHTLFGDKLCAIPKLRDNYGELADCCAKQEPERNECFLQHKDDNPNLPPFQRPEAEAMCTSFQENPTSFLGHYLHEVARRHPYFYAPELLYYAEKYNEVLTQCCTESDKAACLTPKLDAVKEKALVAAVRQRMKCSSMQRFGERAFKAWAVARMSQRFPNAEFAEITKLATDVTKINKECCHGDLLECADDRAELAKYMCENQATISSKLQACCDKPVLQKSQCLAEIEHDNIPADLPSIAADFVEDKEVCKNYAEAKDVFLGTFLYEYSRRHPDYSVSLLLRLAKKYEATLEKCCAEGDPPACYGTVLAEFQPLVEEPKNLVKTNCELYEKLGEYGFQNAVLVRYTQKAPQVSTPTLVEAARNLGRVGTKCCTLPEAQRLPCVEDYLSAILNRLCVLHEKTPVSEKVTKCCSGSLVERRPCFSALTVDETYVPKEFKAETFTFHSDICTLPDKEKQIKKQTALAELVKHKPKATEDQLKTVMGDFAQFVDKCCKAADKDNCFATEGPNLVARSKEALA
T3 sequence (P02768 25-609 limits assumed): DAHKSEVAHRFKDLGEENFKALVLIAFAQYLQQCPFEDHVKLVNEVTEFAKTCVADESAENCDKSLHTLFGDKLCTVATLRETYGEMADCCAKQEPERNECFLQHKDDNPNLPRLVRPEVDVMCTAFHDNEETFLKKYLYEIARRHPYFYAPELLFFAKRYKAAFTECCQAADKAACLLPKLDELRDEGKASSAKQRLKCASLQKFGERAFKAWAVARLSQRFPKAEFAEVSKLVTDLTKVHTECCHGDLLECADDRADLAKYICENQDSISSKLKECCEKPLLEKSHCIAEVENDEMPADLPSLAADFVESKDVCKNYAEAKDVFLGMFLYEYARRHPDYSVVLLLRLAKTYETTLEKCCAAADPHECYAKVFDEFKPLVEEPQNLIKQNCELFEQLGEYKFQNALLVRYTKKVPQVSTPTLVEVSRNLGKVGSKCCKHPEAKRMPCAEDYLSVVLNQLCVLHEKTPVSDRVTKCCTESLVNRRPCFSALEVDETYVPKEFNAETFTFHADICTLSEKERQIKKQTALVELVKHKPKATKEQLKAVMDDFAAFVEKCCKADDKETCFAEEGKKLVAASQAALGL
T4 sequence (A2V9Z4 25-608): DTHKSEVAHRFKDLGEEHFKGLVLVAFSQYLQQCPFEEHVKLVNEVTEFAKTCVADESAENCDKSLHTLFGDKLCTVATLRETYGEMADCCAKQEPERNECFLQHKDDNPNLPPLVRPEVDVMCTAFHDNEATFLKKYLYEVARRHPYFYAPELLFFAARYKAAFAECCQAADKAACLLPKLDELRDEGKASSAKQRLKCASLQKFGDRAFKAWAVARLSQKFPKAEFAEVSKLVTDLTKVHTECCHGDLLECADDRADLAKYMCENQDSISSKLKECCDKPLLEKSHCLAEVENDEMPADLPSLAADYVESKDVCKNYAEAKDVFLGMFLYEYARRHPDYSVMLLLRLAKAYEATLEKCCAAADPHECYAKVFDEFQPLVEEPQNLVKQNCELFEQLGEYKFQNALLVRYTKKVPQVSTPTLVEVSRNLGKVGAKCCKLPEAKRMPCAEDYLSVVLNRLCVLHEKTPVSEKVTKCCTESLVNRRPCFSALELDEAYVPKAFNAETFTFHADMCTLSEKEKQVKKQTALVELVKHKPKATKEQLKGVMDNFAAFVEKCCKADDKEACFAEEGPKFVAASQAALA

B1: PEP12379 (designed binder)
chain: GSSLAEAKEAANAELDSYGVSDFYKNLIDKAKTVEGVEALKDAILAALP
notes: R23N against PEP07843 (position counted on the 46-mer without GSS); Control polypeptide, expressed in E. coli; also called ABD variant; R23N variant of PEP07843
Rat serum albumin [1]
  binding result: binds
Mouse serum albumin [2]
  binding result: binds
Human serum albumin [3]
  Kd: 14 pM
  koff: 2.36e-05 s⁻¹
  kon: 1.7e+06 M⁻¹ s⁻¹

B2: PEP07843 (designed binder)
chain: GSSLAEAKEAANAELDSYGVSDFYKRLIDKAKTVEGVEALKDAILAALP
notes: single Arg at position 23 of the 46-mer; GSS extension at the N-terminus; also called ABD variant; control
Human serum albumin [4]
  Kd: 6.7 pM
Rat serum albumin [5]
  Kd: 8.2 pM
Cynomolgus serum albumin
  Kd: 9.8 pM
Mouse serum albumin [6]
  Kd: 87 pM
Human serum albumin [3]
  Kd: 6.7 pM
  koff: 2.99e-05 s⁻¹
  kon: 4.49e+06 M⁻¹ s⁻¹

B3: PEP12381 (designed binder)
chain: GSSLAEAKEAANAELDSYGVSDFYKSLIDKAKTVEGVEALKDAILAALP
notes: Control polypeptide; 46 residues with an N-terminal GSS extension; R23S against PEP07843 (position counted on the 46-mer without GSS); Expressed in E. coli; also called ABD variant; R23S variant of PEP07843
Rat serum albumin [1]
  binding result: binds
Mouse serum albumin [2]
  binding result: binds
Human serum albumin [3]
  Kd: 17 pM
  koff: 3.08e-05 s⁻¹
  kon: 1.83e+06 M⁻¹ s⁻¹

B4: PEP12380 (designed binder)
chain: GSSLAEAKEAANAELDSYGVSDFYKKLIDKAKTVEGVEALKDAILAALP
notes: Inventive variant; 46 residues with an N-terminal GSS extension; R23K against PEP07843 (position counted on the 46-mer without GSS); Expressed in E. coli; also called ABD variant; R23K variant of PEP07843
Human serum albumin [4]
  Kd: 7.5 pM
Rat serum albumin [5]
  Kd: 9.3 pM
Cynomolgus serum albumin
  Kd: 11 pM
Mouse serum albumin [6]
  Kd: 117 pM
Human serum albumin [3]
  Kd: 7.5 pM
  koff: 2.62e-05 s⁻¹
  kon: 3.48e+06 M⁻¹ s⁻¹

B5: PEP06923 (designed binder)
chain: GSSLAEAKVLANRELDKYGVSDFYKRLINKAKTVEGVEALKLHILAALP
notes: also called ABD variant; control polypeptide
Rat serum albumin [1]
  binding result: binds
Mouse serum albumin [2]
  binding result: binds
